For orientation: Kd means the equilibrium constant for the complex coming apart. Read a high Kd as a looser complex. One may read the Ki as the equilibrium dissociation constant of an inhibitor or competing ligand from its target. A higher Ki goes with a looser hold on the target.

The target of one experiment is tIVR (UniProt P45974). Kind of experiment: other fluorescence titration.
Experiment [1] concerns the target Atto532-tUI (UniProt Q9UMX0). Kind of experiment: other fluorescence titration.
For experiment [2], the target named is Atto532-tUI (UniProt Q9UMX0). Kind of experiment: stopped-flow fluorescence kinetics.
Another experiment deals with tUI (UniProt Q9UMX0). Kind of experiment: other fluorescence titration.
In the next experiment the target is Atto532-tISR (UniProt P45974). Kind of experiment: other fluorescence titration.
Chain of Atto532-tISR (P45974 whole entry, looked up): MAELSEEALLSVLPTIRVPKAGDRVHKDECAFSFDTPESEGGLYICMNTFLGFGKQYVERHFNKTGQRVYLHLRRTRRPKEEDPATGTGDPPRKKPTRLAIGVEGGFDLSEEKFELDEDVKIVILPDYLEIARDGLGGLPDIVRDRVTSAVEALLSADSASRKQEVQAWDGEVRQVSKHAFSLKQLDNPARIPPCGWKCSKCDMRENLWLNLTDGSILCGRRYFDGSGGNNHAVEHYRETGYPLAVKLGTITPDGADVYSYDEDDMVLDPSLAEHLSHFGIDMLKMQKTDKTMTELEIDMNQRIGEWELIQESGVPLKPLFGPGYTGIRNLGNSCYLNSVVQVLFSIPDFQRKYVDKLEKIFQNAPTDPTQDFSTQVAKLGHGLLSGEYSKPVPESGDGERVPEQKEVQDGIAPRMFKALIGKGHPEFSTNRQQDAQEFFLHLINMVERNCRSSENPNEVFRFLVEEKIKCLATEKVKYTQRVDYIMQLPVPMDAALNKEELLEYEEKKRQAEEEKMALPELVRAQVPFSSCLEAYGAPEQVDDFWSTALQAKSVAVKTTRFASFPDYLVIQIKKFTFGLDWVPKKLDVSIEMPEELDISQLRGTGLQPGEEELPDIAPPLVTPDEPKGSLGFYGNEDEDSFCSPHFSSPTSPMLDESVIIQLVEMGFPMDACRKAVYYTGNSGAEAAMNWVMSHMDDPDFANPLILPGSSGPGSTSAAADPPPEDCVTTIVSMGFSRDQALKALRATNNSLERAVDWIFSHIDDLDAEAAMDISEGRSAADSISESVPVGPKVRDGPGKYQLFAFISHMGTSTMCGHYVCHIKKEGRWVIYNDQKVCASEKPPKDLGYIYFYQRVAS

Chain of tIVR (P45974 whole entry, looked up): as above
Chain of Atto532-tUI (Q9UMX0 whole entry, looked up): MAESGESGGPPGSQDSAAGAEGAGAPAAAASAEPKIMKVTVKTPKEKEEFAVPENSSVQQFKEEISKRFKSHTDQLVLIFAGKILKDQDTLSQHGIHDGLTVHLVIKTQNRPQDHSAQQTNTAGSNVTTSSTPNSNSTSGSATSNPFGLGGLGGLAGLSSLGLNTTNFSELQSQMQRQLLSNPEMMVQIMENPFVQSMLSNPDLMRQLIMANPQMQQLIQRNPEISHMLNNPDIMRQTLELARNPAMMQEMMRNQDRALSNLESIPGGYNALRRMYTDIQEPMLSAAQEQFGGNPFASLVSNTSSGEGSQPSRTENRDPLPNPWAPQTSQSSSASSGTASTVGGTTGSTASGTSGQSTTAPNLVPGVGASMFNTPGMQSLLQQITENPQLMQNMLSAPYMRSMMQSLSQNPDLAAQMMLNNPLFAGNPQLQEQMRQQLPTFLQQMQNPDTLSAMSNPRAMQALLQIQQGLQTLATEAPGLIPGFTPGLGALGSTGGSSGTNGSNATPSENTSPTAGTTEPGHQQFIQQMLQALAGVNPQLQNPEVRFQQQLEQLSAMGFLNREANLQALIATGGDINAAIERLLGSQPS
Chain of Nedd8 (Q15843 1-76): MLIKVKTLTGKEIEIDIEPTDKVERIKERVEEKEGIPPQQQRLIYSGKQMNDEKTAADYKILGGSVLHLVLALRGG
Chain of tUI (Q9UMX0 whole entry, looked up): as the sequence (Q9UMX0 whole entry, looked up) above

“Nedd8 (from UniProt Q15843 1-76) (natural protein)”: the fold preference for Ub over Nedd8 in the experiment with tIVR is 3000 fold. For the same substance, in the experiment with Atto532-tUI [1], the fold higher affinity for Ub than Nedd8 is 120 fold.
As to “ubiquitin (from UniProt P0CG48 1-76) (natural protein)”, the equilibrium dissociation constant (Kd) was 0.0564 nM with Atto532-tUI [2], 25.4 nM with tIVR, 0.066 nM in the experiment with Atto532-tUI [1] and 24.3 nM in the experiment with Atto532-tISR. Moreover, the Ki with tIVR was 19 nM; in the experiment with tUI, 0.194 nM.

The record behind these values is paper doi:10.1101/528711.
